Source: patent US7262005

Molecular target: Fas receptor (UniProt P25445)
Assay: cell-based or functional assay

Sequence of Fas receptor (P25445 26-335 limits assumed): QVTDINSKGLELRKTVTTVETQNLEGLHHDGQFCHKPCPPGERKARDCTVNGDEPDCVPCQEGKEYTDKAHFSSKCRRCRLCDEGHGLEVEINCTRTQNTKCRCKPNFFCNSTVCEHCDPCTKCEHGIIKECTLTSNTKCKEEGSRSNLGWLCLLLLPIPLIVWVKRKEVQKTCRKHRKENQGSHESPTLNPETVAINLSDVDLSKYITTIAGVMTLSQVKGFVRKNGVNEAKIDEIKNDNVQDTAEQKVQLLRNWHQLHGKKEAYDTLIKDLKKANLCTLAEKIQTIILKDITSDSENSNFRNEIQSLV

For CH-11 anti-Fas IgM (antibody), the 460/530 emission ratio, + αFas/+ chx, Jurkat cells expressing 2XUb-DEVD-Bla, 50 ng/ml anti-Fas IgM for 6 hours (460/530 emission ratio) was 0.67 and the EC50 of caspase activation in Jurkat cells expressing 2XUb-DEVD-Bla (β-lactamase activity, CCF2 460/530 nm ratio after cycloheximide chase) was 0.011 µg/mL.
